Assay results as given in publication PMC7846786, “DutaFabs are engineered therapeutic Fab fragments that can bind two targets simultaneously” (Nature Communications, 2021).

T1: recombinant human VEGFA-121 (Homo sapiens, strain)
T1 construct: homodimer; Two suppliers are named for different experiments; also called VEGFA dimer; source: bought: Peprotech (catalog number 100-20A; panning, crystallisation); bought: Humanzyme (ELISAs)
T1 chain: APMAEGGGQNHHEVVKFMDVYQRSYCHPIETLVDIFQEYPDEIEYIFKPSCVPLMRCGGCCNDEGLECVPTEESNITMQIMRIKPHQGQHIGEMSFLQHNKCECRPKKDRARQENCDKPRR


Key:
Conditions in all cases: both partners purified
[1] = target: T1, recombinant human VEGFA-121; experiment: ELISA; IC50 competition ELISA: rhVEGFR-1-Fc (1 µg/mL) or rhPDGFRβ-Fc (0.5 µg/mL) coated; ligand (5 pM VEGFA-165, 8 pM VEGFA-121 or 5 pM PDGF-BB) pre-incubated 1.5 h with 1:2 dilutions of Fab in PBS, 0.1% Tween-20, 1% BSA; 10 min on the plate at RT; free ligand detected with biotinylated anti-hVEGF or anti-hPDGF-BB goat IgG; 4-parameter fit
[2] = target: T2, recombinant human PDGF-BB (human, UniProt P01127); experiment: as above
T2 construct: platelet-derived growth factor subunit B, human; homodimer; Two suppliers and two Peprotech catalogue numbers are printed; also called PDGF-BB dimer; source: bought: R&D Systems (ELISAs); bought: Peprotech (catalog number 100-14B for panning; 100-13A printed for crystallisation)

[3] = target: T3, recombinant human VEGFA-165 (Homo sapiens, UniProt P15692-4, strain); experiment: as above
T3 construct: homodimer; source: bought: Humanzyme

rat VEGF-A121 = target: T4, rat VEGF-A121 (Rattus norvegicus, UniProt P16612-4, strain); experiment: SPR; affinities of the Fab fragments used in the in-vivo study for human and rat VEGF-A121, expressed as KD (nM); who was immobilised and the conditions not given
T4 construct: The homodimer is stated for VEGFA in general

human VEGFA-121 [4] = target: T5, human VEGFA-121 (Homo sapiens, UniProt P15692); experiment: as above
T5 construct: homodimer

human VEGFA-121 [5] = target: T5, human VEGFA-121; experiment: kinetic exclusion assay (KinExA); in solution; 4 h pre-incubation of 50 pM DutaFab with 244 fM-4 nM PDGF-BB, or of 100 pM DutaFab with 122 fM-2 nM VEGFA-121; duplicate 1:2 titration series; 25 °C
PDGF-BB [6] = target: T6, PDGF-BB (Homo sapiens, UniProt P01127); experiment: as above
T6 construct: platelet-derived growth factor subunit B, human, recombinant; homodimer PDGF-BB; as I recall, the commercial protein is the 109-residue mature B chain (residues 82-190 of the precursor); also called recombinant human PDGF-BB; source: 100-13A is printed for crystallization) and from R&D Systems

PDGF-BB [7] = target: T6, PDGF-BB; experiment: as above; remark: listed apart in the source

T5 sequence (P15692 other isoform, or with tags, fused parts or gaps): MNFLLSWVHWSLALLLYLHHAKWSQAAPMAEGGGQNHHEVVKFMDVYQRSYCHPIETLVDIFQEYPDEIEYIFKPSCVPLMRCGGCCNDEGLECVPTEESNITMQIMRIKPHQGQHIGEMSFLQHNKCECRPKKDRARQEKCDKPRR
T6 sequence (P01127 82-190): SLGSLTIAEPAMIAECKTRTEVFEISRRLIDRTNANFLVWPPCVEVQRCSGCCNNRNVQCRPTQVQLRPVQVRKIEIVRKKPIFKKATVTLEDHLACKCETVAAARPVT
T3 sequence (P15692 whole entry, looked up, change not shown): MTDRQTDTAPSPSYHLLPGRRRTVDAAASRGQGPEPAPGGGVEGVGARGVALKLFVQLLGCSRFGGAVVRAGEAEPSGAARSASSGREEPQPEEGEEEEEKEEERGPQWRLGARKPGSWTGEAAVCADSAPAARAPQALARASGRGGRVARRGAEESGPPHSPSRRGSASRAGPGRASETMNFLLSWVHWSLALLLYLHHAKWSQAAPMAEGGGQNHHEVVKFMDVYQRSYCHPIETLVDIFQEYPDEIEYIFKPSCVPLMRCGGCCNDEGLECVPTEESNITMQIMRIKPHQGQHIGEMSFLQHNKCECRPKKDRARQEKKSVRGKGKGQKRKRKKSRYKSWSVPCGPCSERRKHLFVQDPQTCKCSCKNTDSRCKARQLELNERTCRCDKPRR
T2 sequence (P01127 82-190): as the sequence (P01127 82-190) above

Row | Binder | IC50 [1] [nM] | IC50 [2] [nM] | IC50 [3] [nM] | Kd (rat VEGF-A121) [nM] | Kd (human VEGFA-121 [4]) [nM] | Kd (human VEGFA-121 [5]) [nM] | Kd (PDGF-BB [6]) [nM] | Kd (PDGF-BB [7]) [nM]
1 | DutaFab clone VP (initial bispecific DutaFab against VEGFA and PDGF-BB) (Fab, V domains shown, human VH3 scaffold with CH1; H-side paratope against PDGF-BB; human Vk1 scaffold with Ck; L-side paratope against VEGFA; Bispecific Fab with two paratopes in one Fv; also called DutaFab VP; original bispecific DutaFab VP; source: periplasmic expression in E. coli or HEK Expi293 cells, purified (kappa select, then cation exchange or SEC)) VH: EEQLVESGGGLVQPGGSLRLSCAASGWWFEYTDMSWVRQAPGQGLEWVGSISPSGGSTYYNTNFIGRFTISRDDSKNTLYLQMNSLRDEDTAVYYCARDEGYFDEWGQGTLVTVSS VL: AIQMTQSPSSLSASVGDRVTITCQASYWLHKYLAWYQQKPGQAPKLLIYDASELEYGVPDRFSGSGSGTDFTLTISSLEPEDFAVYYCQNYRYHPYTFGQGTKLEIK | 0.894 | 21 | 0.023 | – | – | – | – | –
2 | DutaFab VP mat YHE (Fab, V domains shown, human CH1 constant domain, as the heavy chain of Dm1 (PDB 6T9D, 6T9E); that R108 may be the first residue of the UniProt entry, so it must not be doubled; Co-operativity variant of Dm1; the PDB entries hold the parent VP mat; also called clone VP mat YHE; source: periplasmatic expression in E. coli or HEK Expi293 cells, purified (kappa select, then cation exchange or SEC)) VH: DLQLVESGGGLVKPGGSLRLSCAADGWWFGYTDMSWVRQAPGKGLEWVGSISYKGGSTYYNTKFIGRFTISRDDDTNTLYLQMNSLRAEDTAVYYCARDDGYFDTWGQGTLVTVSS VL: AIYMHQEPSSLSASVGDRVTITCHGSYWLSNYLAWYQQKPGKAPKLLIYDGKEREHGVPSRFSGSGSHEDYTLTISSLQPEDFATYYCQQYRYHPYTFGHGTKVEIK | – | – | – | 0.043 | 0.005 | 0.00323 | 0.00402 | 0.006
